In article PMC5595237 (Nature, 2017):

Target: the molecule itself
Assay: SEC

B1: full-length human adiponectin (ligand)
chain: ETTTQGPGVLLPLPKGACTGWMAGIPGHPGHNGAPGRDGRDGTPGEKGEKGDPGLIGPKGDIGETGVPGAEGPRGFPGIQGRKGEPGEGAYVYRSAFSVGLETYVTIPNMPIRFTKIFYNQQNHYDGSTGKFHCNIPGLYYFAYHITVYMKDVKVSLFKKDKAMLFTYDQYQENNVDQASGSVLLHLEVGDQVWLQVYGEGERNGLYADNDNDSTFTGFLLYHDTN
B1: binds.
